For eight molecules, Kd results are on record in patent publication US20180208680A1 (published 2018).

B1: 4C4 scFv (scFv, V domains shown)
VH: QVQLVESGPGLVKPSQTLSLTCSVSGASINNSPYFWNWFRQFPGKGLEWIGYIYWSGSTNYNPSLKSRLAMSVDTSKNQFSLKLTSATAADTAVYYCARDQGGGTVVKENWFDPWGQGTLVTVSS
VL: DIVMTQSPSSLSASVGDRLTMTCQASQDIGKHLNWYQQKAGKPPKLLIYGASNLKTGVPSRFSAGVSWTDFTFTISNVQPEDVATYYCQQSYSTPPTFGQGTKVEIKR
B2: 4C4.1 scFv (scFv, V domains shown)
VH: B1 VH
VL: ETTLTQSPSSLSASVGDRVSITCRASQSISNYLNWYQQKPGKAPKLLIYAASSLQSGVPSRFSGSGSGTDFTLTISSLQPEDFATYYCQQSYSDPPTFGQGTKVEIKR
B3: 4C4.2 scFv (scFv, V domains shown)
VH: B1 VH
VL: DIQMTQSPSTLSASVGDRVTITCRASQSIGTYLNWYQQKPGRAPTLLVSRTSNLHTGVPSRFSGDGSGSHFSLTIDSLQPEDFATYYCQQSHTSPVTFGQGTKVEIKR
B4: 4C10 scFv (scFv, V domains shown)
VH: QVQLVESGGGAVQPGESLRLSCAASGFTFSGFDMHWVRQSPGRGLEWVARISHDGSMADYADSLRGRFTISRDNPKNTLYLHMNSLRVEDTALYYCAKDRWRSGSYPAFEKWGQGTMVTVSS
VL: QSVPTQPASVSGSPGQSITISCTGTSSDVGAYNYVSWYQQHPGKAPKLMIYDVSDRPSGVSNRFSGSKSGNTASLTISGLQAEDEADYYCSSYTSSSTYVFGTGTKLTVL
B5: 4C4.1 IgG (antibody, V domains shown)
VH: B1 VH
VL: ETTLTQSPSSLSASVGDRVSITCRASQSISNYLNWYQQKPGKAPKLLIYAASSLQSGVPSRFSGSGSGTDFTLTISSLQPEDFATYYCQQSYSDPPTFGQGTKVEIK
B6: 4C4.2 IgG (antibody, V domains shown)
VH: B1 VH
VL: DIQMTQSPSTLSASVGDRVTITCRASQSIGTYLNWYQQKPGRAPTLLVSRTSNLHTGVPSRFSGDGSGSHFSLTIDSLQPEDFATYYCQQSHTSPVTFGQGTKVEIK
B7: 4C4 IgG (antibody, V domains shown)
VH: B1 VH
VL: DIVMTQSPSSLSASVGDRLTMTCQASQDIGKHLNWYQQKAGKPPKLLIYGASNLKTGVPSRFSAGVSWTDFTFTISNVQPEDVATYYCQQSYSTPPTFGQGTKVEIK
B8: 8DC1.2 IgG (antibody, V domains shown)
VH: QVTLKESGGGLVQPGRSLTLSCPLSGFTSSDYVLHWVRQAPGTGLDWVAVISSDGTKAYYGDSVKGRFTISRDTSKNTLLLQMNSPRAEDTAIYYCAISTRGPFDIWGHGTMVTVSS
VL: DIQMTQSPSSLSAFVGDRITITCRASRGVSNYLAWYQQKPGKAPKLLIYAASSLQSGVPSRFSGSGSGTEFTLTISGLQPDDFATYYCQQYNAYPLTFGGGTKLEIK

As usually defined, the Kd is a measure of binding affinity in units of concentration. The low end stands for tighter binding, the high end for weaker binding.

For the first assay, the target named is T1, BoNT/DC mosaic toxin (Clostridium botulinum). The assay can be described thus: yeast scFv FACS.
Turning to B1, the affinity, expressed as Kd, was 0.58 nM.
For B2, the Kd worked out at 0.06 nM.
The molecule B3 displayed a Kd of 0.13 nM.
B4 gave a Kd of 107 nM.

The target of another assay is T2, BoNT/C1 holotoxin (Clostridium botulinum, UniProt P18640 2-1291).
T2 sequence: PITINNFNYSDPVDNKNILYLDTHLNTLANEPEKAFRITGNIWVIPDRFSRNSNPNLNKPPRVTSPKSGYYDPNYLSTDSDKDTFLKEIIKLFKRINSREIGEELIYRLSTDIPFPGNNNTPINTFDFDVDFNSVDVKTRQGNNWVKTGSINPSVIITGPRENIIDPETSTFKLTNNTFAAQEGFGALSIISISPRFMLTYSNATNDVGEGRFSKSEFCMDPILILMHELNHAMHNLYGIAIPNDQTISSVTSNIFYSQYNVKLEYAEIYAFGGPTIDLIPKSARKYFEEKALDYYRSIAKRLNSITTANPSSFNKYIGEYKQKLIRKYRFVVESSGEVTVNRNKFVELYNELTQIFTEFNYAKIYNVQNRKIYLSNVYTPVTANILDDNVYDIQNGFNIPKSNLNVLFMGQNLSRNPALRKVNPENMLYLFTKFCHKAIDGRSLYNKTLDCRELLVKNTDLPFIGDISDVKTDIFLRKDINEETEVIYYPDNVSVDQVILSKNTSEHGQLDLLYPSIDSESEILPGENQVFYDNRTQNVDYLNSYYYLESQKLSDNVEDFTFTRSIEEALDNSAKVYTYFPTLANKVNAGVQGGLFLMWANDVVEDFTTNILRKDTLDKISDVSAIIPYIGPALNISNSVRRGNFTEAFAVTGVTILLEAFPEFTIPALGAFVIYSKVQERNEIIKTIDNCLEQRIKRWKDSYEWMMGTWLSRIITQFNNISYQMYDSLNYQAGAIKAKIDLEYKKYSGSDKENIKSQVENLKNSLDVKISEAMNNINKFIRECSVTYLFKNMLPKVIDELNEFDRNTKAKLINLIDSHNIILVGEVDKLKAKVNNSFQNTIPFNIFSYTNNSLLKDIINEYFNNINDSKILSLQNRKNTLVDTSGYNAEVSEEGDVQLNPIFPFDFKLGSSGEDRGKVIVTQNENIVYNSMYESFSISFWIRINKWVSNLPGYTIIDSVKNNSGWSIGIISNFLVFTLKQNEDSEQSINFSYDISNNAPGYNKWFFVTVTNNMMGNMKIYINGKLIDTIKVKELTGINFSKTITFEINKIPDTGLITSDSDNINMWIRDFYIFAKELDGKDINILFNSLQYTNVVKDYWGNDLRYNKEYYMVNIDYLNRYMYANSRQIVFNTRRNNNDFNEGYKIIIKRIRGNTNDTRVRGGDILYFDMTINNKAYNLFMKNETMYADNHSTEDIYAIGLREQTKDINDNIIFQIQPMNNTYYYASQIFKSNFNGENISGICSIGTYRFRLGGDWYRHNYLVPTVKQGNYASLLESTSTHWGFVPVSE
The assay can be described thus: yeast scFv FACS.
For the molecule B1, binding was put at a Kd of 3 nM. This lies in the single-digit nanomolar range.
As for B2, the Kd is 1.5 nM. Compared with the last molecule, the Kd is about 2-fold lower.
As to B3, the Kd worked out at 1.1 nM.

The target in the next assay is T1, BoNT/DC mosaic toxin. The assay can be described thus: IgG KinExA.
In turn, B5 came in with a Kd of 0.058 nM.
The same measure, in the same setting: for B6 the value was 0.126 nM; for B7, 0.577 nM.

In another assay the target is T2, BoNT/C1 holotoxin. The assay can be described thus: IgG KinExA.
As for B5, the Kd worked out at 0.539 nM.
For B6, binding was characterised by a dissociation constant (Kd) of 0.035 nM.
As to B7, the affinity, expressed as Kd, was 0.835 nM.
In turn, B8 had an equilibrium dissociation constant (Kd) of 0.736 nM.

The target of the next assay is T2, BoNT/C1 holotoxin. The assay can be described thus: yeast scFv FACS. The source holds these as a separate data set.
For B1, the Kd was 2.6 nM. That is a single-digit nanomolar value.
